# The supplement of paper PMC7877785
# ± gives the uncertainty stated by the source.
# Assay: self-splicing fitness, log relative to wild type (ln ratio); higher = more splicing; Tetrahymena group I intron in knt gene, E. coli kanamycin selection, DiMSum; sequences stand for … in CUCUCU…GGAGGGAAAAGUUAUCAGGCAUGCACCUGGUAGCUAGUCUUUAAACCAAUAGAUUGCAUCGGUUUAAAAGGCAAGACCGUCAAAUUGCGGGAAAGGGGUCAACAGCCGUUCAGUACCAAGUCUCAGGGGAAACUUUGAGAUGGCCUUGCAAAGGGUAUGGUAAUAAGCUGACGGACAUGGUCCUAACCACGCAGCCAAGUCCUAAGUCAACAGAUCUUCUGUUGAUAUGGAUGCAGUUCACAGACUAAAUGUCGGUCGGGGAAGAUGUAUUCUUCUCAUAAGAUAUAGUCGGACCUCUCCUUAAUGGGAGCUAGCGGAUGAAGUGAUGCAACACUGGAGCCGCUGGGAACUAAUUUGUAUGCGAAAGUAUAUUGAUUAGUUUUGGAGUACUCGUGGUCG
# Method in brief: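 Pooled colonies went to amplicon sequencing on an Illumina HiSeq 2500 after six replicate transformations. The plates were LB agar with 100 μg/mL carbenicillin, 50 μM IPTG and 0.2% rhamnose, with or without 25 μg/mL kanamycin, incubated overnight at 37°C or 30°C. The E. coli BL21(DE3) library had all eight P1ex-region intron nucleotides randomised, the intron placed in the knt kanamycin-resistance gene on pET-22b(+). DiMSum fitness is the error-weighted combination of replicate fold changes, kanamycin against none, normalised to wild type.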
Sequence,self-splicing fitness (ln) (30 °C),self-splicing fitness (ln) (37 °C)
AUCGAGCAAUAUUACGGACU,-0.916 ± 0.16,-0.737 ± 0.19
AUCGAGCAAUAUUACGGCAA,-2.19 ± 0.15,-2.06 ± 0.18
AUCGAGCAAUAUUACGGCUA,-1.22 ± 0.12,-1.28 ± 0.12
AUCGAGCAAUAUUACGGGUA,-2.85 ± 0.16,-2.15 ± 0.14
AUCGAGCAAUAUUACGGGUG,-3.28 ± 0.14,-1.89 ± 0.12
AUCGAGCAAUAUUACGUAGC,-4.41 ± 0.42,-1.79 ± 0.26
AUCGAGCAAUAUUACGUAGG,-3.82 ± 0.39,-2.04 ± 0.2
AUCGAGCAAUAUUACGUCCG,-3.17 ± 0.31,-2.94 ± 0.44
AUCGAGCAAUAUUACGUGCC,-2.52 ± 0.2,-2.22 ± 0.32
AUCGAGCAAUAUUACGUUAA,-3.73 ± 0.27,-2.48 ± 0.29
AUCUAGCAAUAUUACGAAAG,-3.62 ± 0.27,-2.15 ± 0.24
AUCUAGCAAUAUUACGAAAU,-1.81 ± 0.11,-0.899 ± 0.11
AUCUAGCAAUAUUACGAACU,-0.13 ± 0.12,0.27 ± 0.12
AUCUAGCAAUAUUACGACUU,-0.1 ± 0.074,0.24 ± 0.092
AUCUAGCAAUAUUACGAGAC,-4.67 ± 0.42,-3.22 ± 0.3
AUCUAGCAAUAUUACGAGCG,-1.87 ± 0.12,-1.25 ± 0.15
AUCUAGCAAUAUUACGAGGA,-2.83 ± 0.32,-2.01 ± 0.21
AUCUAGCAAUAUUACGAGGU,-5.03 ± 0.45,-3.28 ± 0.43
AUCUAGCAAUAUUACGAUCG,-3.35 ± 0.24,-1.77 ± 0.27
AUCUAGCAAUAUUACGCACA,-0.774 ± 0.11,0.129 ± 0.12
AUCUAGCAAUAUUACGCCCC,-0.911 ± 0.15,0.223 ± 0.22
AUCUAGCAAUAUUACGCCGG,,-1.25 ± 0.34
AUCUAGCAAUAUUACGCUGA,-1.71 ± 0.18,-0.501 ± 0.13
AUCUAGCAAUAUUACGGAAA,-2.23 ± 0.2,-1.66 ± 0.18
AUCUAGCAAUAUUACGGACG,-0.422 ± 0.07,0.212 ± 0.094

Sequence,self-splicing fitness (ln) (30 °C),self-splicing fitness (ln) (37 °C)
AUCUAGCAAUAUUACGGCCG,-1.43 ± 0.23,-0.562 ± 0.38
AUCUAGCAAUAUUACGGCUA,-3.6 ± 0.28,-2.4 ± 0.23
AUCUAGCAAUAUUACGGGAC,-2.44 ± 0.17,-1.03 ± 0.13
AUCUAGCAAUAUUACGGGAG,-0.833 ± 0.076,-0.293 ± 0.092
AUCUAGCAAUAUUACGGGGC,-2.42 ± 0.47,
AUCUAGCAAUAUUACGGGGU,-3 ± 0.16,-2.98 ± 0.2
AUCUAGCAAUAUUACGUCAU,-1.41 ± 0.11,-0.955 ± 0.12
AUCUAGCAAUAUUACGUUAA,-1.84 ± 0.23,-1.82 ± 0.34
AUGAAGCAAUAUUACGAACU,-0.587 ± 0.074,0.606 ± 0.098
AUGAAGCAAUAUUACGAAUC,-1.68 ± 0.23,
AUGAAGCAAUAUUACGACAA,0.158 ± 0.11,0.0912 ± 0.12
AUGAAGCAAUAUUACGACCU,0.893 ± 0.14,1.08 ± 0.15
AUGAAGCAAUAUUACGAGCU,-1.52 ± 0.12,-0.173 ± 0.14
AUGAAGCAAUAUUACGCCCC,0.963 ± 0.19,0.00961 ± 0.23
AUGAAGCAAUAUUACGCGCA,0.498 ± 0.096,0.526 ± 0.12
AUGAAGCAAUAUUACGCGGU,-2.88 ± 0.24,-1.71 ± 0.2
AUGAAGCAAUAUUACGCGUU,-2.78 ± 0.12,-0.429 ± 0.093
AUGAAGCAAUAUUACGCUCA,0.436 ± 0.068,0.555 ± 0.082
AUGAAGCAAUAUUACGCUGC,-2.7 ± 0.24,-2.42 ± 0.44
AUGAAGCAAUAUUACGGAAA,-2.48 ± 0.15,-0.666 ± 0.15
AUGAAGCAAUAUUACGGAUG,-0.705 ± 0.063,0.152 ± 0.076
AUGAAGCAAUAUUACGGCCG,-0.163 ± 0.18,0.947 ± 0.26
AUGAAGCAAUAUUACGGCGC,-0.339 ± 0.074,0.665 ± 0.11
AUGAAGCAAUAUUACGGCUA,0.423 ± 0.092,0.486 ± 0.11
AUGAAGCAAUAUUACGGGGU,-2.79 ± 0.23,-1.21 ± 0.17

Sequence,self-splicing fitness (ln) (30 °C),self-splicing fitness (ln) (37 °C)
AUGAAGCAAUAUUACGGGUA,-1.01 ± 0.097,-0.761 ± 0.13
AUGAAGCAAUAUUACGUCGC,-2.24 ± 0.14,-1.28 ± 0.18
AUGAAGCAAUAUUACGUCGG,-0.496 ± 0.1,-0.498 ± 0.11
AUGAAGCAAUAUUACGUGAA,-1.99 ± 0.088,-0.731 ± 0.12
AUGAAGCAAUAUUACGUGAG,-1.27 ± 0.083,-0.0834 ± 0.12
AUGAAGCAAUAUUACGUUGU,-1.99 ± 0.12,-0.91 ± 0.12
AUGAAGCAAUAUUACGUUUG,-2.28 ± 0.11,-1.56 ± 0.13
AUGCAGCAAUAUUACGAAAU,-2.02 ± 0.13,-0.358 ± 0.11
AUGCAGCAAUAUUACGAAGG,-3.78 ± 0.37,-2.89 ± 0.41
AUGCAGCAAUAUUACGAAUC,-3.82 ± 0.24,-2.87 ± 0.2
AUGCAGCAAUAUUACGACAC,-0.537 ± 0.077,0.312 ± 0.11
AUGCAGCAAUAUUACGACCU,0.132 ± 0.082,0.168 ± 0.087
AUGCAGCAAUAUUACGAGGG,-2.51 ± 0.15,-3.09 ± 0.26
AUGCAGCAAUAUUACGAUUA,-1.32 ± 0.1,-0.923 ± 0.1
AUGCAGCAAUAUUACGCACG,-1.46 ± 0.091,-0.13 ± 0.1
AUGCAGCAAUAUUACGCAGG,-3.71 ± 0.14,-2.13 ± 0.12
AUGCAGCAAUAUUACGCGAU,-3.67 ± 0.3,-1.92 ± 0.25
AUGCAGCAAUAUUACGCUAG,-3.93 ± 0.26,-2.49 ± 0.23
AUGCAGCAAUAUUACGGACA,-1.13 ± 0.15,-0.421 ± 0.13
AUGCAGCAAUAUUACGGACG,-1.57 ± 0.12,-0.811 ± 0.13
AUGCAGCAAUAUUACGGCAU,-3.9 ± 0.19,-2.61 ± 0.15
AUGCAGCAAUAUUACGGUAA,-0.979 ± 0.11,-0.791 ± 0.1
AUGCAGCAAUAUUACGGUUC,-2.28 ± 0.088,-1.83 ± 0.13
AUGCAGCAAUAUUACGGUUG,-4.33 ± 0.23,-2.21 ± 0.19
AUGCAGCAAUAUUACGGUUU,-0.723 ± 0.065,-0.427 ± 0.075

Sequence,self-splicing fitness (ln) (30 °C),self-splicing fitness (ln) (37 °C)
AUGCAGCAAUAUUACGUAUC,-4.58 ± 0.41,-2.76 ± 0.4
AUGCAGCAAUAUUACGUCAU,-3.12 ± 0.14,-2.26 ± 0.12
AUGCAGCAAUAUUACGUCCG,-2.16 ± 0.11,-1.27 ± 0.14
AUGCAGCAAUAUUACGUUCA,-1.16 ± 0.11,-0.74 ± 0.12
AUGCAGCAAUAUUACGUUGU,-4.08 ± 0.16,-3.03 ± 0.15
AUGGAGCAAUAUUACGAAGA,,-1.17 ± 0.33
AUGGAGCAAUAUUACGAAGG,-3 ± 0.23,-2.29 ± 0.34
AUGGAGCAAUAUUACGAAUC,-3.53 ± 0.32,-1.97 ± 0.36
AUGGAGCAAUAUUACGCCGC,-1.29 ± 0.44,
AUGGAGCAAUAUUACGCGCA,-1.66 ± 0.28,-0.77 ± 0.23
AUGGAGCAAUAUUACGCUCU,-3.56 ± 0.49,-1.45 ± 0.41
AUGGAGCAAUAUUACGCUGG,,-1.53 ± 0.2
AUGGAGCAAUAUUACGGAUA,-2.46 ± 0.17,-2.21 ± 0.28
AUGGAGCAAUAUUACGGCGC,-2.45 ± 0.34,-0.677 ± 0.41
AUGGAGCAAUAUUACGGCGU,0.125 ± 0.14,0.224 ± 0.14
AUGGAGCAAUAUUACGGCUG,-2.48 ± 0.17,-1.84 ± 0.34
AUGGAGCAAUAUUACGGGAG,-2.75 ± 0.18,-2.82 ± 0.31
AUGGAGCAAUAUUACGGGGC,-3.13 ± 0.18,-2.14 ± 0.19
AUGGAGCAAUAUUACGGUGC,-2.99 ± 0.25,
AUGGAGCAAUAUUACGUCCG,-1.29 ± 0.12,-1.06 ± 0.13
AUGGAGCAAUAUUACGUCUC,-1.83 ± 0.28,-1.89 ± 0.37
AUGGAGCAAUAUUACGUGCC,-2.59 ± 0.25,-2.25 ± 0.45
